Tests used:
[1] = tested on: P. aeruginosa strain WC-453; experiment: Time-kill assay in HEPES or CAA with 25% human serum (Tables 7, 8); type: cell-based, Pseudomonas aeruginosa
Procedure: Exponential phase bacteria were then pelleted and resuspended in 1/5 culture volume of 25 mM HEPES, pH 7.4 before a final adjustment to an optical density corresponding to a McFarland value of 0.5. […] All treatments were incubated at 37° C. with aeration. At time points before the addition of lysin (or buffer control) and at 1 hour and 3 hours intervals thereafter, culture samples were removed for quantitative plating on CAA agar plates.

P. aeruginosa isolates = experiment: MIC against a range of isolates in CAA + […] human serum (Table 11); type: cell-based, Pseudomonas aeruginosa
[2] = tested on: Pseudomonas aeruginosa strain CFS-1292 (meropenem resistant); experiment: MIC in 25% CAA alone, with […] human serum or […] SURVANTA (Table 13); type: cell-based
Procedure: Materials and methods: MICs were determined by broth microdilution in media supplemented with human serum and pulmonary surfactant ([…]®; Myoderm Clinical Supplies). Minimal biofilm eradicating concentrations (MBECs) were determined using standard methods. […] Fluorescence microscopy was performed after LIVE/DEAD staining (ThermoFisher) and TEM was performed.

[3] = tested on: carbapenem-resistant P. aeruginosa strains; experiment: Resensitization of carbapenem-resistant strains, combinations with imipenem or meropenem (Tables 18-22); type: cell-based, Pseudomonas aeruginosa; conditions: for FICI: isolate WC-452
P. aeruginosa (PA20) = experiment: Rabbit infective endocarditis model (Tables 28-32, FIGS. 5-8); type: in vivo, Pseudomonas aeruginosa in rabbits
Procedure: Initially, a polyethylene catheter was placed into the rabbits' right ventricle and secured. 48 hours after catheter placement, rabbits were infected intravenously with P. aeruginosa (PA20) (6×10^9 CFU/mL). Treatment commenced 24 hours post-infection.
Data were analyzed using the Kruskal-Wallis method for multiple comparison and then adjusted with a false discovery rate approach (Benjamini-Hochberg method), using StatsDirect Software. A p-value of <0.05 was considered statistically significant.

[4] = tested on: 15 P. aeruginosa isolates; experiment: MIC of GN370 in dog, human, rabbit and rat serum and CAAT; meropenem in CAMHB (Table 33); type: cell-based, Pseudomonas aeruginosa; conditions: for MIC90: 15 isolates; for MIC GN370: diluted CAAT media
[5] = single dose of GN370 + meropenem

B1: GN370: lysin-AMP construct: MIDR, FIRL and NPTH moieties N-terminal to GN202 lysin (SEQ ID NO: 44) (protein)
chain: MIDRFIRLNPTHGPRRPRRPGRRAPVRTSQRGIDLIKSFEGLRLSAYQDSVGVWTIGYGTTRGVTRYMTITVEQAERMLSNDIQRFEPELDRLAKVPLNQNQWDALMSFVYNLGAANLASSTLLDLLNKGDYQGAADQFPHWVNAGGKRLDGLVKRRAAERALFLEPLS
bactericidal activity (CFU decrease of 3-Log10, 3 hours after the addition of lysin) ([1]; 10 μg/mL, enumerated lysins in CAA/HuS, general statement for HEPES and CAA/HuS): bactericidal activity
CAA/HuS (Log10 CFU/mL), 1 hr ([1]; CAA + 25% human serum, lysin 10 μg/ml, 1 hr, WC-453): 4.0 Log10 CFU/mL
CAA/HuS (Log10 CFU/mL), 3 hr ([1]; CAA + 25% human serum, lysin 10 μg/ml, 3 hr, WC-453): <3.7 Log10 CFU/mL
activity against P. aeruginosa isolates in human serum or SURVANTA (P. aeruginosa isolates; Tables 11 and 12): active against a variety of P. aeruginosa isolates
MIC, CAA + […] Human Serum (P. aeruginosa isolates; strain CFS 1109 (ATCC 17646)): 1 µg/mL
MIC, CAA + […] Human Serum (P. aeruginosa isolates; strain CFS 1292): 2 µg/mL
MIC, CAA + […] Human Serum (P. aeruginosa isolates; strain CFS1539 (PA1)): 1 µg/mL
MIC, CAA + […] Human Serum (P. aeruginosa isolates; strain CFS 1540 (PA2)): 1 µg/mL
MIC, CAA + […] Human Serum (P. aeruginosa isolates; strain CFS 1541 (PA3)): 1 µg/mL
MIC, CAA + […] Human Serum (P. aeruginosa isolates; strain CFS 1557 (PA19)): 4 µg/mL
MIC, CAA + […] Human Serum (P. aeruginosa isolates; strain CFS 1558 (PA20)): 0.5 µg/mL
MIC, CAA + […] Human Serum (P. aeruginosa isolates; strain CFS 1559 (PA21)): 2 µg/mL
MIC, CAA + […] Human Serum (P. aeruginosa isolates; strain CFS 1560 (PA22)): 2 µg/mL
MIC, CAA + […] Human Serum (P. aeruginosa isolates; strain CFS 1561 (PA23)): 2 µg/mL
MIC, CAA + […] Human Serum (P. aeruginosa isolates; strain CFS 1562 (PA24)): 2 µg/mL
MIC, CAA + […] Human Serum (P. aeruginosa isolates; strain CFS 1596 (PA26)): 1 µg/mL
MIC, CAA + […] Human Serum (P. aeruginosa isolates; strain CFS 1597 (PA27)): 0.5 µg/mL
MIC, CAA + […] Human Serum (P. aeruginosa isolates; strain CFS 1669 (PA41)): 2 µg/mL
MIC, CAA + […] Human Serum (P. aeruginosa isolates; strain CFS 1674 (PA46)): 2 µg/mL
MIC, CAA + […] Human Serum (P. aeruginosa isolates; strain CFS 1675 (PA47)): 1 µg/mL
MIC, CAA + […] Human Serum (P. aeruginosa isolates; strain CFS 1766 (ATCC 27853)): 4 µg/mL
MIC in […] Survanta [2]: 2 µg/mL
MIC in human serum ([…]) in CAA [2]: 2 µg/mL
activity in human serum and pulmonary surfactant [2]: active in human serum and pulmonary surfactant
25% CAA MIC ([2]; media alone): 4
resensitization to carbapenems in synergistic combinations ([3]; imipenem (IPM) and meropenem (MEM), carbapenem-resistant isolates): reductions of IPM and MEM MICS to below breakpoint values
FICI ([3]; lysin + imipenem): 0.094
FICI ([3]; lysin + meropenem): 0.125
Antibiotic MIC / Lysin MIC, Alone ([3]; vs. WC-452 (Table 22)): 2
change of cardiac vegetations counts vs untreated controls (P. aeruginosa (PA20); meropenem + 3 mg/kg GN370): −1.3 log10 CFU/g
change of cardiac vegetations counts vs vehicle-treated controls (P. aeruginosa (PA20); meropenem + 3 mg/kg GN370): −0.8 log10 CFU/g
change of cardiac vegetations counts vs untreated controls (P. aeruginosa (PA20); meropenem + 10 mg/kg GN370): −1.1 log10 CFU/g
change of cardiac vegetations counts vs vehicle-treated controls (P. aeruginosa (PA20); meropenem + 10 mg/kg GN370): −0.5 log10 CFU/g
P. aeruginosa densities in kidney, spleen and lung vs meropenem alone (P. aeruginosa (PA20); meropenem + GN370 at all doses): −0.6 to−2.2 log10 CFU/g
P. aeruginosa densities in kidney, spleen and lung vs untreated control (P. aeruginosa (PA20); meropenem + GN370 at all doses): −2.0 to−3.6 log10 CFU/g
P. aeruginosa densities in kidney, spleen and lung vs vehicle (P. aeruginosa (PA20); meropenem + GN370 at all doses): −1.7 to−3.2 log10 CFU/g
CFU reduction in cardiac vegetation tissues (P. aeruginosa (PA20); [5]): about 1 log kill
CFU reduction in kidney, spleen and lung tissues (P. aeruginosa (PA20); [5]): about 3 log kill
CFU reduction in cardiac vegetations (P. aeruginosa (PA20); three days of GN370 at 10 mg/kg + 5 mg/kg meropenem, compared to both the start of treatment and a vehicle control): > 2 log CFU
MIC90 ([4]; dog serum): 4 µg/mL
MIC90 ([4]; human serum): 2 µg/mL
MIC90 ([4]; rabbit serum): 2 µg/mL
MIC90 ([4]; rat serum): 32 µg/mL
MIC GN370 ([4]; strain AR0231): 2 µg/mL
Serum MIC Dog ([4]; strain AR0231, dog serum): 2 µg/mL
Serum MIC Human ([4]; strain AR0231, human serum): 1 µg/mL
Serum MIC Rabbit ([4]; strain AR0231, rabbit serum): 1 µg/mL
Serum MIC Rat ([4]; strain AR0231, rat serum): 16 µg/mL
MIC GN370 ([4]; strain AR0241): 2 µg/mL
Serum MIC Dog ([4]; strain AR0241, dog serum): 1 µg/mL
Serum MIC Human ([4]; strain AR0241, human serum): 1 µg/mL
Serum MIC Rabbit ([4]; strain AR0241, rabbit serum): 1 µg/mL
Serum MIC Rat ([4]; strain AR0241, rat serum): 32 µg/mL
MIC GN370 ([4]; strain AR0246): 1 µg/mL
Serum MIC Dog ([4]; strain AR0246, dog serum): 4 µg/mL
Serum MIC Human ([4]; strain AR0246, human serum): 2 µg/mL
Serum MIC Rabbit ([4]; strain AR0246, rabbit serum): 2 µg/mL
Serum MIC Rat ([4]; strain AR0246, rat serum): 32 µg/mL
MIC GN370 ([4]; strain ATCC 25668): 0.5 µg/mL
Serum MIC Dog ([4]; strain ATCC 25668, dog serum): 2 µg/mL
Serum MIC Human ([4]; strain ATCC 25668, human serum): 1 µg/mL
Serum MIC Rabbit ([4]; strain ATCC 25668, rabbit serum): 2 µg/mL
Serum MIC Rat ([4]; strain ATCC 25668, rat serum): 16 µg/mL
MIC GN370 ([4]; strain ATCC 27853): 1 µg/mL
Serum MIC Dog ([4]; strain ATCC 27853, dog serum): 2 µg/mL
Serum MIC Human ([4]; strain ATCC 27853, human serum): 1 µg/mL
Serum MIC Rabbit ([4]; strain ATCC 27853, rabbit serum): 2 µg/mL
Serum MIC Rat ([4]; strain ATCC 27853, rat serum): 32 µg/mL
MIC GN370 ([4]; strain PA1): 0.5 µg/mL
Serum MIC Dog ([4]; strain PA1, dog serum): 1 µg/mL
Serum MIC Human ([4]; strain PA1, human serum): 2 µg/mL
Serum MIC Rabbit ([4]; strain PA1, rabbit serum): 2 µg/mL
Serum MIC Rat ([4]; strain PA1, rat serum): 16 µg/mL
MIC GN370 ([4]; strain PA2): 0.5 µg/mL
Serum MIC Dog ([4]; strain PA2, dog serum): 1 µg/mL
Serum MIC Human ([4]; strain PA2, human serum): 1 µg/mL
Serum MIC Rabbit ([4]; strain PA2, rabbit serum): 2 µg/mL
Serum MIC Rat ([4]; strain PA2, rat serum): 16 µg/mL
MIC GN370 ([4]; strain PA3): 1 µg/mL
Serum MIC Dog ([4]; strain PA3, dog serum): 2 µg/mL
Serum MIC Human ([4]; strain PA3, human serum): 2 µg/mL
Serum MIC Rabbit ([4]; strain PA3, rabbit serum): 2 µg/mL
Serum MIC Rat ([4]; strain PA3, rat serum): 16 µg/mL
MIC GN370 ([4]; strain PA19): 1 µg/mL
Serum MIC Dog ([4]; strain PA19, dog serum): 1 µg/mL
Serum MIC Human ([4]; strain PA19, human serum): 0.5 µg/mL
Serum MIC Rabbit ([4]; strain PA19, rabbit serum): 0.5 µg/mL
Serum MIC Rat ([4]; strain PA19, rat serum): 32 µg/mL
MIC GN370 ([4]; strain PA20): 1 to 2 µg/mL
Serum MIC Dog ([4]; strain PA20, dog serum): 2 µg/mL
Serum MIC Human ([4]; strain PA20, human serum): 1 µg/mL
Serum MIC Rabbit ([4]; strain PA20, rabbit serum): 2 µg/mL
Serum MIC Rat ([4]; strain PA20, rat serum): 32 µg/mL
MIC GN370 ([4]; strain PA22): 2 µg/mL
Serum MIC Dog ([4]; strain PA22, dog serum): 2 µg/mL
Serum MIC Human ([4]; strain PA22, human serum): 2 µg/mL
Serum MIC Rabbit ([4]; strain PA22, rabbit serum): 2 µg/mL
Serum MIC Rat ([4]; strain PA22, rat serum): 32 µg/mL
MIC GN370 ([4]; strain PA23): 2 µg/mL
Serum MIC Dog ([4]; strain PA23, dog serum): 2 µg/mL
Serum MIC Human ([4]; strain PA23, human serum): 1 µg/mL
Serum MIC Rabbit ([4]; strain PA23, rabbit serum): 2 µg/mL
Serum MIC Rat ([4]; strain PA23, rat serum): 32 µg/mL
MIC GN370 ([4]; strain PA24): 1 µg/mL
Serum MIC Dog ([4]; strain PA24, dog serum): 4 µg/mL
Serum MIC Human ([4]; strain PA24, human serum): 2 µg/mL
Serum MIC Rabbit ([4]; strain PA24, rabbit serum): 2 µg/mL
Serum MIC Rat ([4]; strain PA24, rat serum): 16 µg/mL
MIC GN370 ([4]; strain PA27): 0.5 µg/mL
Serum MIC Dog ([4]; strain PA27, dog serum): 2 µg/mL
Serum MIC Human ([4]; strain PA27, human serum): 2 µg/mL
Serum MIC Rabbit ([4]; strain PA27, rabbit serum): 2 µg/mL
Serum MIC Rat ([4]; strain PA27, rat serum): 16 µg/mL
MIC GN370 ([4]; strain PA453): 0.5 µg/mL
Serum MIC Dog ([4]; strain PA453, dog serum): 0.5 µg/mL
Serum MIC Human ([4]; strain PA453, human serum): 0.5 µg/mL
Serum MIC Rabbit ([4]; strain PA453, rabbit serum): 0.5 µg/mL
Serum MIC Rat ([4]; strain PA453, rat serum): 32 µg/mL

From US20210324359A1, “USE OF GRAM-NEGATIVE LYSIN-ANTIMICROBIAL PEPTIDE (AMP) POLYPEPTIDE CONSTRUCTS IN TREATING ENDOCARDITIS” (priority 2020, published 2021)
